Legend:
[1] = molecular target: tumor-associated calcium signal transducer 2 (TROP2) (UniProt P09758); experiment: cell-based or functional assay
[2] = molecular target: human epidermal growth factor receptor 2 (HER2) (human) (UniProt P04626); experiment: cell-based or functional assay

tumor-associated calcium signal transducer 2 (TROP2), sequence (P09758 27-323 limits assumed): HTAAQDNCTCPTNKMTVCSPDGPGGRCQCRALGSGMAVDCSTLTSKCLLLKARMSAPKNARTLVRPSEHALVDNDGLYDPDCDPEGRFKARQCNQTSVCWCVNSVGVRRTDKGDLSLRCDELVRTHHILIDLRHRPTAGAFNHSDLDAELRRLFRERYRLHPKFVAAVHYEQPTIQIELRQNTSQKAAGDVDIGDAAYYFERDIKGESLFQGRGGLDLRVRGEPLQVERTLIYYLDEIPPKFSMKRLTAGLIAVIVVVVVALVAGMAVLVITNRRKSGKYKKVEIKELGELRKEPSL

| Dmax (%), TROP2, MCF7 [1] | Substance | IC50 of cell viability, modified MTT assay, MDA-MB-175VII cells, 5 days [2] | IC50 of cell viability, modified MTT assay, SK-BR-3 cells, 5 days [2] |
| --- | --- | --- | --- |
| 51% | CXCL12-Sacituzumab (bispecific antibody) |  |  |
|  | CXCL12-Trastuzumab (bispecific antibody) | 86.8 nM | 199 nM |

Source: US20240189423A1
